The supplement of paper PMC10899765

Tests used:
Conditions in all cases: 20 nM; 72 h
[1] = test system: MCF10A; assay: percent viability (nuclei count relative to siNT); higher = more viable cells
Procedure: (§1)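 After 72 h, cells were fixed and stained with Hoechst and anti-fibrillarin, and nucleoli per nucleus were counted with CellProfiler. Values are plate-adjusted percent effect for the one-nucleolus and 5+ nucleoli phenotypes, normalised to siNT (0%) and to the positive controls siNOL11 or siKIF11 (100%), as the mean of biological triplicates. Percent viability is the nuclei count relative to siNT.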

[2] = test system: MCF10A; assay: 5+ nucleoli phenotype percent effect (relative to siNT 0% and siKIF11 100%); higher = more cells with five or more nucleoli
Procedure: as §1

[3] = test system: MCF10A; assay: one-nucleolus phenotype percent effect (relative to siNT 0% and siNOL11 100%); higher = more cells with one nucleolus (ribosome biogenesis inhibition)
Procedure: as §1

Row | Sequence | percent viability [1] [%] | 5+ nucleoli phenotype percent effect [2] [%] | one-nucleolus phenotype percent effect [3] [%]
1 | GGUAGAUUUUCCUUCUAUGGU [hsa-miR-376a-2-5p] | 71.5 | 62 | -26.7
2 | UGAGGGUGUCAGCAGGUGACG [hsa-miR-6804-5p] | 11.7 | 0.774 | 19.5
3 | AAUUUGGUUUCUGAGGCACUUAGU [hsa-miR-5002-5p] | 32.2 | 1.85 | 27.3
4 | CCUAAUUUGAACACCUUCGGUA [hsa-miR-4735-5p] | 80.8 | 8.71 | -11.3
5 | UUUCCAUAGGUGAUGAGUCAC [hsa-miR-587] | 86.7 | 39.4 | -21.6
6 | UAUAGGGAUUGGAGCCGUGGCG [hsa-miR-135a-3p] | 63.5 | 4.73 | 13.5
7 | CAUGGUUCUGUCAAGCACCGCG [hsa-miR-218-2-3p] | 68 | 7.58 | 12.5
8 | AUAGCAAUUGCUCUUUUGGAA [hsa-miR-4766-3p] | 38.1 | -28.9 | 19.4
9 | CACCAGGCAUUGUGGUCUCC [hsa-miR-1911-3p] | 45 | -9.8 | 26.3
10 | UUGUGUCAAUAUGCGAUGAUGU [hsa-miR-592] | 69.9 | -26.9 | 31.3
11 | CUCGGGGCAGGCGGCUGGGAGCG [hsa-miR-6727-5p] | 74.2 | 19.5 | -15.9
12 | CUGCAAAGGGAAGCCCUUUC [hsa-miR-527] | 32.8 | -41.4 | 46.6
13 | UCGGGGCAUGGGGGAGGGAGGCUGG [hsa-miR-6775-5p] | 57.8 | 35.1 | -21.8
14 | UACCAUUAGAAGAGCUGGAAGA [hsa-miR-6512-5p] | 78.6 | 11 | 1.01
15 | UAGGGGGUGGCAGGCUGGCC [hsa-miR-6732-5p] | 33.3 | -15.7 | 17.1
16 | AAAACUGCAGUUACUUUUGC [hsa-miR-548av-3p] | 83.1 | 35.1 | -20.6
17 | UUCUGCCUCUGUCCAGGUCCUU [hsa-miR-5001-3p] | 39.1 | -28.1 | 19.3
18 | UAUGUGGGAUGGUAAACCGCUU [hsa-miR-299-3p] | 45.6 | -20.9 | 13.9
19 | GGGUUUGUAGCUUUGCUGGCAUG [hsa-miR-5087] | 26.6 | 6.11 | 4.68
20 | UGAGUACCGCCAUGUCUGUUGGG [hsa-miR-1911-5p] | 108 | 17.2 | -20.9

Row | Sequence | percent viability [1] [%] | 5+ nucleoli phenotype percent effect [2] [%] | one-nucleolus phenotype percent effect [3] [%]
21 | AGCUGGUAAAAUGGAACCAAAU [hsa-miR-133a-5p] | 30.7 | -4.69 | 7.21
22 | CAGGAAGGAGACAGGCAGUUCA [hsa-miR-6876-5p] | 21.8 | -24.5 | 10.4
23 | UGACCUCUCCGCUCCGCACAG [hsa-miR-6821-3p] | 38.9 | -22.7 | 7.28
24 | ACCUGUCUGUGGAAAGGAGCUA [hsa-miR-4421] | 30.7 | -6.29 | 15.9
25 | CAAAGUCCUUCCUAUUUUUCCC [hsa-miR-6507-3p] | 104 | -15.5 | -3.22
26 | CCUGCGUGUUUUCUGUCCAA [hsa-miR-4520a-5p] | 52.7 | -4.05 | 3.67
27 | UGGCAGUGUAUUGUUAGCUGGU [hsa-miR-449a] | 14 | -16.3 | 36.9
28 | CUCCGGGACGGCUGGGC [hsa-miR-4497] | 67.6 | 0.934 | -8.42
29 | CUCAUUUAAGUAGUCUGAUGCC [hsa-miR-5696] | 125 | -2.38 | -11.5
30 | GCAAAGCACACGGCCUGCAGAGA [hsa-miR-330-3p] | 83.2 | 16.5 | -7.99
31 | CCAAACCAGUCGUGCCUGUGG [hsa-miR-6715a-3p] | 40.8 | -42 | 24.3
32 | UAGCAGCACAUCAUGGUUUACA [hsa-miR-15b-5p] | 26.5 | -4.86 | 26.9
33 | UUUCUUCUUAGACAUGGCAGCU [hsa-miR-4659b-3p] | 31.6 | -29.4 | -5.32
34 | CAGGGAACCAGUUGGGGCUU [hsa-miR-6822-5p] | 20.6 | -8.39 | 20.9
35 | AGGGACGGGACGCGGUGCAGUG [hsa-miR-92b-5p] | 75.4 | 34.3 | 2.12
36 | CUCGGGAGGGCAUGGGCCAGGC [hsa-miR-6771-5p] | 50.5 | -1.93 | -0.506
37 | ACUGGACUUGGAGGCAGAA [hsa-miR-378b] | 36.5 | -14.2 | 9.39
38 | AGAGGUUGCCCUUGGUGAAUUC [hsa-miR-377-5p] | 22 | -35.2 | 36.3
39 | AAGGGGGAAGGAAACAUGGAGA [hsa-miR-4716-3p] | 21.3 | -6.04 | 21.6
40 | GGGGAGCGAGGGGCGGGGC [hsa-miR-6090] | 164 | 36.1 | -21.8

Row | Sequence | percent viability [1] [%] | 5+ nucleoli phenotype percent effect [2] [%] | one-nucleolus phenotype percent effect [3] [%]
41 | UUCGGGCUGGCCUGCUGCUCCGG [hsa-miR-3944-3p] | 30.8 | 17.5 | -7.09
42 | AAUGGCUGUCCGUAGUAUGGUC [hsa-miR-889-5p] | 24.5 | -28.6 | 43.3
43 | UGGGGCGGGGCAGGUCCCUGC [hsa-miR-6816-5p] | 71.1 | 30.8 | -19
44 | GUUGUGUCAGUUUAUCAAAC [hsa-miR-599] | 84.3 | 29.3 | -13.5
45 | AGGCUGCGGAAUUCAGGAC [hsa-miR-604] | 25.6 | -15.7 | 29.2
46 | GGGGCCUGGCGGUGGGCGG [hsa-miR-2861] | 80.1 | 87.4 | -37.2
47 | UAAAGUGCUUAUAGUGCAGGUAG [hsa-miR-20a-5p] | 81.6 | 6.94 | -13.2
48 | GUGCCAGCUGCAGUGGGGGAG [hsa-miR-1202] | 76.5 | 44.3 | -8.53
49 | UGAUUGUCCAAACGCAAUUCU [hsa-miR-219-5p] | 82.1 | 14.5 | -9.06
50 | GGAGGCCGGGGUGGGGCGGGGCGG [hsa-miR-6089] | 153 | 53 | -25.7
51 | UAACAAACACCUGUAAAACAGC [hsa-miR-5688] | 101 | 22.5 | -7.14
52 | GAGGGUUGGGUGGAGGCUCUCC [hsa-miR-296-3p] | 57.1 | 9.3 | 20.8
53 | GGUGGCCCGGCCGUGCCUGAGG [hsa-miR-663b] | 124 | 47.3 | -23.6
54 | UUCUCGAGGAAAGAAGCACUUUC [hsa-miR-516a-5p] | 127 | 22.1 | -19.5
55 | UCGGGCCUGGGGUUGGGGGAGC [hsa-miR-6749-5p] | 37.7 | 21.9 | -10.1
56 | AAAGGUGCUCAAAUUAGACAU [hsa-miR-4735-3p] | 21.4 | -26.8 | 43
57 | UUGCCUGCCCUCUUCCUCCAG [hsa-miR-6894-3p] | 24.2 | -20.1 | 22.3
58 | UGGAGUUAAGGGUUGCUUGGAGA [hsa-miR-4653-3p] | 12.9 | -39.9 | 47.6
59 | GGCAGGAGGGCUGUGCCAGGUUG [hsa-miR-4722-5p] | 60.5 | 13.5 | -6.08
